The record followed here is patent publication US20190135876A1 (TRELLIS BIOSCIENCE, published 2019).

B2: RSV G[161-197] (peptide)
peptide: MGNDFHFEVFNFVPCSICSNNPTCWAICKRIPNKKPGKKHHHHHH

One assay concerns the target CX3CR1 (human) (UniProt P49238). The assay is described as follows: cell-based or functional assay. The following applies: scale: chemotactic index.
The target of assay [1] is T1, CX3CR1 (human, UniProt P49238 1-355).
T1 sequence: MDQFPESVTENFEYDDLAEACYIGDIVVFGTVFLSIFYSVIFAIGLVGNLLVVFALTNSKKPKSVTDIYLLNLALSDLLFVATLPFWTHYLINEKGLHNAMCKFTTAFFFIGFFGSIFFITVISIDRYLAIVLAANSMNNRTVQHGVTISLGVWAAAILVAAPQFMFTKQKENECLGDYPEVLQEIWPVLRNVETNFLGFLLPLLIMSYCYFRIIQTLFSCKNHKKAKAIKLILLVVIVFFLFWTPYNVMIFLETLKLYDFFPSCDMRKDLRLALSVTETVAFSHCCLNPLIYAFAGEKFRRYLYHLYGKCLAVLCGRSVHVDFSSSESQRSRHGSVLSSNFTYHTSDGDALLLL
The assay is described as follows: cell-based or functional assay.

In a further assay the target is T2, RSV G[169-198] (respiratory syncytial virus).
T2 construct: also called synthetic RSV G peptide
T2 peptide: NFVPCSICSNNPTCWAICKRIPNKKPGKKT
Briefly: complex formation and X-ray crystal structure.

The assay “RSV G[161-197]” addresses B2. Briefly: cell-based or functional assay.
For assay [2], the target named is T1, CX3CR1. The assay is described as follows: cell-based or functional assay. This is another data set of the same source.

Source text for RSV G[169-198]: Diffraction data from a single crystal were processed with HKL2000.

In the assay with CX3CR1 (human), “anti-CX3CR1 rabbit polyclonal antibody (ThermoFisher Scientific Cat# PAS-19910)” displayed a chemotactic index of THP-1 cells pre-incubated with anti-CX3CR1 antibody, toward 5 nM RSV G[161-197] of 1.1.

B1: RSV G ectodomain (G[ecto]) (other)
chain: SANHKVTPTTAIIQDATSQIKNTTPTYLTQNPQLGISPSNPSEITSQITTILASTTPGVKSTLQSTTVKTKNTTTTQTQPSKPTTKQRQNKPPSKPNNDFHFEVFNFVPCSICSNNPTCWAICKRIPNKKPGKKTTTKPTKKPTLKTTKKDPKPQTTKSKEVPTTKPTEEPTINTTKTNIITTLLTSNTTGNPELTSQMETFHSTSSEGNPSPSQVSTTSEYPSQPSSPPNTPRQHHHHHHGWSHPQFEKGGGSGGGSGGGSWSHPQFEK
For the molecule B1, the “chemotactic index of THP-1 cells toward 5 nM RSV G[ecto]” value with CX3CR1 [1] was 3.9 chemotactic index (fold over serum-free media). For B2, the “chemotactic index of THP-1 cells toward 5 nM RSV G[161-197]” value with CX3CR1 [1] was 4.2 chemotactic index (fold over serum-free media).

B3: scFv 2D10 (scFv)
scFv: QVQLVQSGPEVKKPGASVRLSCKASGYVFTNYGVSWVRQAPGQGLEWMGWSSPYNGNTYYAQKLKARVTMTTDTSTNTAYMELRSLRSDDTAVYYCGRDMLGVVQAVAGPFDSWGQGTLVTVSSASGGGGSGGGGSGGGGSGGGDTPMTQSPSSVSASVGDRVTISCRASQGISNSLAWYQQKLGKAPQLLIYAASSLQSGVPSRFSGSGSGTDFTLTISSLQPEDFATYYCQQTNTFPFTFGPGTKVEVRR
notes: Expressed in Drosophila S2 cells with BiP signal; Twin-Strep tag removed with thrombin before use; A few vector residues probably remain at both ends (RS; ASLVPR); also called recombinant single-chain variable fragment (scFv) of 2D10
In the case of B3, the binding result with RSV G[169-198] was “binds”.

B4: mAb 3D3 (antibody, V domains shown)
VH: EEQLVESGGGLVQPGRSLRLSCVGSGLRFEEHAMHWVRQAPGRGLEWVSGISWNSGSVGYADSVKGRFTTSRDNAKDILFLEMNTLRSEDTALYFCAIMVATTKNDFHYYKDVWGKGTTVTVSS
VL: QIVLTQSPATLSLSPGERATLSCRASQSVSNHLAWYQQKPGQAPRLLIYETSNRATGIPPRFSGSGSGTDFTLTISSLEPEDFAVYYCQQRNNWYTFGQGTKLEIK
For B4, the “chemotactic index of THP-1 cells toward 5 nM RSV G[161-197] pre-incubated with 25 nM mAb” value with RSV G[161-197] is 1.5 chemotactic index (fold over serum-free media). Take NDFHFEVFNFVPCSICWNNPTCWAICKRIPNKKPGKK [RSV G (CCR) variant S177→W]: the “Chemotactic activity (THP-1 chemotaxis assay, duplicate assays, standard deviation in parentheses)” value with CX3CR1 [2] is 1.2 chemotactic index (negative control PBS = 1.0).

Regarding NDFYFEVFNFVPCSICSNNPTCWAICKRIPNKKPGKK [RSV G (CCR) variant H164→Y], the “Chemotactic activity (THP-1 chemotaxis assay, duplicate assays, standard deviation in parentheses)” value in the assay with CX3CR1 [2] is 3.8 chemotactic index (negative control PBS = 1.0).

As for NDFHFKVFNFVPCSICSNNPTCWAICKRIPNKKPGKK [RSV G (CCR) variant E166→K], the “Chemotactic activity (THP-1 chemotaxis assay, duplicate assays, standard deviation in parentheses)” value with CX3CR1 [2] was 1.6 chemotactic index (negative control PBS = 1.0). The same measure, in the same setting: to NDFHFKVFNFVPCSICSNNPTCWAICERIPNKKPGKK [RSV G (CCR) variant E166→K + K187 →E] belongs 1.8 chemotactic index (negative control PBS = 1.0); to NDFHFEVFNFVPCSICSNNPTCWAICKRIPNEEPGKK [RSV G (CCR) variant K192→E + K193 →E], 2.5 chemotactic index (negative control PBS = 1.0); to NDFHFEVFNFVPCSICSNNPTCWAICKRIPNKKPGKK [Wild type RSV G (CCR)], 6.2 chemotactic index (negative control PBS = 1.0). The same measure, in the same setting: for NDFHFEVFNFVPCSICRNNPTCWAICKRIPNKKPGKK [RSV G (CCR) variant S177→R] the value was 0.9 chemotactic index (negative control PBS = 1.0).

B5: mAb 2D10 (antibody, V domains shown)
VH: QVQLVQSGPEVKKPGASVRLSCKASGYVFTNYGVSWVRQAPGQGLEWMGWSSPYNGNTYYAQKLKARVTMTTDTSTNTAYMELRSLRSDDTAVYYCGRDMLGVVQAVAGPFDSWGQGTLVTVSS
VL: DTPMTQSPSSVSASVGDRVTISCRASQGISNSLAWYQQKLGKAPQLLIYAASSLQSGVPSRFSGSGSGTDFTLTISSLQPEDFATYYCQQTNTFPFTFGPGTKVEVRR
Turning to B5, the “chemotactic index of THP-1 cells toward 5 nM RSV G[161-197] pre-incubated with 25 nM mAb” value in the assay with RSV G[161-197] is 1 chemotactic index (fold over serum-free media).
